Data on one protein can be found in FireProtDB (doi:10.1016/s0022-2836(99)80018-7).

For the data set the following is noted: Bacillus amyloliquefaciens; pH 6.3; 25 °C; Urea; Fluorescence; MES 50 mM; reversible: yes; whole UniProt chain shown.

B1: Ribonuclease wild type, P00648 (protein)
chain: MMKMEGIALKKRLSWISVCLLVLVSAAGMLFSTAAKTETSSHKAHTEAQVINTFDGVADYLQTYHKLPDNYITKSEAQALGWVASKGNLADVAPGKSIGGDIFSNREGKLPGKSGRTWREADINYTSGFRNSDRILYSSDWLIYKTTDHYQTFTKIR
In the case of B1, the denaturant m value stood at 2.02 kcal/mol/M, the “denaturant midpoint (higher = more stable)” value worked out at 4.58 M and the unfolding free energy stood at 9.93 kcal/mol.
